Legend:
Test in all cases: purified protein
[1] = test system: O=[N+]([O-])c1ccc(O[C@@H]2O[C@@H]([C@H](O)CO)[C@H](O)[C@H]2O)cc1; conditions: 50 mM sodium phosphate pH 6.5, 1 mg/mL BSA, 60 °C, 0–14 mM substrate, authors' caution: maximum substrate below 2 x KM
[2] = test system: O=[N+]([O-])c1ccc(O[C@@H]2O[C@@H](CO)[C@H](O)[C@H]2O)cc1; conditions: 50 mM sodium phosphate pH 6.5, 1 mg/mL BSA, 60 °C, 0–5 mM substrate
[3] = test system: O=[N+]([O-])c1ccc(O[C@@H]2OC[C@@H](O)[C@H](O)[C@H]2O)cc1; conditions: 50 mM sodium phosphate pH 6.5, 1 mg/mL BSA, 60 °C, 0–40 mM substrate, authors' caution: maximum substrate below 2 x KM

For THSAbf (Paenibacillus sp. HanTHS1), the Km [1] was 8.6 ± 0.9 mM, the kcat [1] was 327 ± 20 s⁻¹ and the kcat/Km [1] was 38000 M⁻¹ s⁻¹. The Km [2] was 0.31 ± 0.1 mM, the kcat [2] was 328 ± 23 s⁻¹ and the kcat/Km [2] was 1.05e+06 M⁻¹ s⁻¹. It also gave a Km [3] of 23.8 ± 4.1 mM, a kcat [3] of 10.6 ± 0.9 s⁻¹ and a kcat/Km [3] of 440 M⁻¹ s⁻¹.

— paper PMC4939007, “The GH51 α-L-arabinofuranosidase from Paenibacillus sp. THS1 is multifunctional, hydrolyzing main-chain and side-chain glycosidic bonds in heteroxylans” (Biotechnology for Biofuels, 2016)
